In the supplement of paper PMC10126150:
± gives the standard deviation of the averaged measurements.

System: ATP
Test: switch fluorescence ratio, 500 uM ATP over buffer (Cy3 cluster intensity, sum of 5 cycles each) (fold (ratio)); higher = stronger signal-on switching upon ATP binding; sequences stand for … in TCGTCGGCAGCGTCAGATGTGTATAAGAGACAGTTTTTTTTTTTTTTTTTTTTTTTTT…TC
Conditions: aptamer strand: ATP DNA aptamer (quencher-CACCTGGGGGAGTATTGCGGAGGAAGG + anchor), 100 nM annealed; ATP concentration: 500 uM
Procedure, shortened: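 Cy3-labelled switching-strand clusters on a modified Illumina MiSeq flow-cell were annealed to 100 nM quencher-labelled ATP aptamer and imaged first in selection buffer, then after 15 min with 500 uM ATP at 22 °C. NaOH stripping and re-annealing separated each of five buffer/ATP cycles, and clusters outside 100-1000 RFU were excluded. The fluorescence ratio sums target-cycle Cy3 intensity over buffer-cycle Cy3 intensity per cluster and averages it per switch-domain sequence.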
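Note: ATP exposure 15 min at 22 °C before imaging.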

## TATGGGGAGC
  switch fluorescence ratio: 0.998 ± 0.044

## TATGGGGAGT
  switch fluorescence ratio: 0.981 ± 0.046

## TATGGGGATT
  switch fluorescence ratio: 0.991 ± 0.037

## TATGGGGGTG
  switch fluorescence ratio: 1.05 ± 0.043

## TATGGGGTGG
  switch fluorescence ratio: 1.01 ± 0.015

## TATGGGGTTA
  switch fluorescence ratio: 0.981 ± 0.028

## TATGGGGTTG
  switch fluorescence ratio: 1.03 ± 0.12

## TATGGGTACT
  switch fluorescence ratio: 1 ± 0.027

## TATGGGTTTG
  switch fluorescence ratio: 0.994 ± 0.04

## TATGGTATCT
  switch fluorescence ratio: 0.994 ± 0.024

## TATGGTCACC
  switch fluorescence ratio: 1.03 ± 0.03

## TATGGTCATA
  switch fluorescence ratio: 0.999 ± 0.032

## TATGGTCATT
  switch fluorescence ratio: 0.99 ± 0.015

## TATGGTCCTG
  switch fluorescence ratio: 0.962 ± 0.023

## TATGGTTG
  switch fluorescence ratio: 0.99 ± 0.057

## TATGGTTTCC
  switch fluorescence ratio: 1.03 ± 0.05

## TATGTAAATT
  switch fluorescence ratio: 1.01 ± 0.012

## TATGTAATGG
  switch fluorescence ratio: 1.02 ± 0.036

## TATGTAGAGA
  switch fluorescence ratio: 0.99 ± 0.023

## TATGTATGC
  switch fluorescence ratio: 1.03 ± 0.014

## TATGTCATCG
  switch fluorescence ratio: 1.01 ± 0.028

## TATGTCGCCA
  switch fluorescence ratio: 1.01 ± 0.024

## TATGTGTGCG
  switch fluorescence ratio: 1.02 ± 0.017

## TATGTGTTTT
  switch fluorescence ratio: 1.031 ± 0.0034

## TATGTTACGG
  switch fluorescence ratio: 1.03 ± 0.0075

## TATGTTGGGT
  switch fluorescence ratio: 1.02 ± 0.037

## TATGTTGTTT
  switch fluorescence ratio: 1.04 ± 0.023

## TATGTTTGGC
  switch fluorescence ratio: 1 ± 0.04

## TATGTTTTAT
  switch fluorescence ratio: 1.02 ± 0.048

## TATTAAGAAT
  switch fluorescence ratio: 0.987 ± 0.0043

## TATTAAGGAT
  switch fluorescence ratio: 1 ± 0.031

## TATTAATAGA
  switch fluorescence ratio: 0.999 ± 0.061

## TATTAATCTT
  switch fluorescence ratio: 1.02 ± 0.014

## TATTACACTG
  switch fluorescence ratio: 1.03 ± 0.033

## TATTACGGCG
  switch fluorescence ratio: 1.02 ± 0.03

## TATTACTATT
  switch fluorescence ratio: 0.999 ± 0.023

## TATTAGAGCG
  switch fluorescence ratio: 1.02 ± 0.025

## TATTAGGGGT
  switch fluorescence ratio: 1.01 ± 0.023

## TATTAGTGGC
  switch fluorescence ratio: 0.9403 ± 0.0088

## TATTAGTTTT
  switch fluorescence ratio: 1.02 ± 0.047

## TATTATAAAT
  switch fluorescence ratio: 0.98 ± 0.016

## TATTATAGAT
  switch fluorescence ratio: 0.99997 ± 0.00069

## TATTATCGGA
  switch fluorescence ratio: 0.996 ± 0.048

## TATTATGGCG
  switch fluorescence ratio: 1.04 ± 0.014

## TATTATGGGA
  switch fluorescence ratio: 0.991 ± 0.035

## TATTATGGGT
  switch fluorescence ratio: 0.982 ± 0.036

## TATTATTGGA
  switch fluorescence ratio: 1 ± 0.042

## TATTATTGGG
  switch fluorescence ratio: 1 ± 0.0054

## TATTCCTTGG
  switch fluorescence ratio: 0.966 ± 0.012

## TATTCCTTTT
  switch fluorescence ratio: 1.01 ± 0.013

## TATTCGGAGC
  switch fluorescence ratio: 1.01 ± 0.037

## TATTCGGGGT
  switch fluorescence ratio: 0.99 ± 0.028

## TATTGACAGA
  switch fluorescence ratio: 1.022 ± 0.0053

## TATTGACATT
  switch fluorescence ratio: 1.016 ± 0.0071

## TATTGAGACC
  switch fluorescence ratio: 1.03 ± 0.036

## TATTGAGATG
  switch fluorescence ratio: 0.998 ± 0.046

## TATTGATTGG
  switch fluorescence ratio: 0.9977 ± 0.0062

## TATTGCCAGG
  switch fluorescence ratio: 1.1 ± 0.036

## TATTGCCGCA
  switch fluorescence ratio: 1.057 ± 0.0085

## TATTGCTATT
  switch fluorescence ratio: 0.972 ± 0.017

## TATTGCTTTC
  switch fluorescence ratio: 1.03 ± 0.018

## TATTGGAGTT
  switch fluorescence ratio: 1.04 ± 0.015

## TATTGGATGC
  switch fluorescence ratio: 0.97 ± 0.032

## TATTGGATTA
  switch fluorescence ratio: 1.01 ± 0.026

## TATTGGCTTG
  switch fluorescence ratio: 0.985 ± 0.013

## TATTGGGAAT
  switch fluorescence ratio: 0.985 ± 0.01

## TATTGGGCCC
  switch fluorescence ratio: 0.9954 ± 0.0019

## TATTGTCGTT
  switch fluorescence ratio: 1.02 ± 0.029

## TATTGTGATA
  switch fluorescence ratio: 0.991 ± 0.039

## TATTGTGCGG
  switch fluorescence ratio: 1.01 ± 0.037

## TATTGTGGAG
  switch fluorescence ratio: 0.983 ± 0.024

## TATTGTGGTT
  switch fluorescence ratio: 1 ± 0.031

## TATTGTTAAA
  switch fluorescence ratio: 0.987 ± 0.029

## TATTGTTATG
  switch fluorescence ratio: 1 ± 0.028

## TATTGTTTGA
  switch fluorescence ratio: 0.9578 ± 0.0067

## TATTTAAAGC
  switch fluorescence ratio: 0.9768 ± 0.0092

## TATTTAAAGT
  switch fluorescence ratio: 1.02 ± 0.049

## TATTTAAT
  switch fluorescence ratio: 1.07 ± 0.11

## TATTTAATGA
  switch fluorescence ratio: 1.54 ± 0.81

## TATTTACCGC
  switch fluorescence ratio: 1.13 ± 0.034

## TATTTAGGTT
  switch fluorescence ratio: 1.006 ± 0.006

## TATTTAGTCG
  switch fluorescence ratio: 0.975 ± 0.019

## TATTTATACA
  switch fluorescence ratio: 1.029 ± 0.0054

## TATTTATTGC
  switch fluorescence ratio: 1.01 ± 0.037

## TATTTATTTG
  switch fluorescence ratio: 1.02 ± 0.045

## TATTTCGAAC
  switch fluorescence ratio: 1.02 ± 0.015

## TATTTCTCGT
  switch fluorescence ratio: 1.01 ± 0.056

## TATTTGATGC
  switch fluorescence ratio: 1.02 ± 0.036

## TATTTGATTG
  switch fluorescence ratio: 1.001 ± 0.0041

## TATTTGCGCG
  switch fluorescence ratio: 0.967 ± 0.037

## TATTTGGGTG
  switch fluorescence ratio: 1.05 ± 0.023

## TATTTGGTTG
  switch fluorescence ratio: 0.995 ± 0.018

## TATTTTAGGT
  switch fluorescence ratio: 1.01 ± 0.048

## TATTTTAGTA
  switch fluorescence ratio: 1.01 ± 0.03

## TATTTTATTA
  switch fluorescence ratio: 1.011 ± 0.0085

## TATTTTCGGG
  switch fluorescence ratio: 1.011 ± 0.0078

## TATTTTGGGA
  switch fluorescence ratio: 1.02 ± 0.021

## TATTTTGTGA
  switch fluorescence ratio: 0.952 ± 0.018

## TATTTTGTTA
  switch fluorescence ratio: 1.01 ± 0.047

## TATTTTTAGT
  switch fluorescence ratio: 1 ± 0.027

## TATTTTTATT
  switch fluorescence ratio: 1.01 ± 0.021

## TATTTTTCGG
  switch fluorescence ratio: 0.984 ± 0.041

## TATTTTTGCT
  switch fluorescence ratio: 0.981 ± 0.032

## TATTTTTTTC
  switch fluorescence ratio: 1 ± 0.018

## TCAAACGTAT
  switch fluorescence ratio: 1.06 ± 0.022

## TCAAAGAATA
  switch fluorescence ratio: 1.02 ± 0.029

## TCAAAGTCAT
  switch fluorescence ratio: 0.991 ± 0.0068

## TCAAAGTCCT
  switch fluorescence ratio: 1.01 ± 0.02

## TCAAAGTTTT
  switch fluorescence ratio: 1.01 ± 0.023

## TCAAATTAGC
  switch fluorescence ratio: 0.986 ± 0.023

## TCAAATTTTC
  switch fluorescence ratio: 1.02 ± 0.026

## TCAACAGGGA
  switch fluorescence ratio: 1.08 ± 0.15

## TCAAGAAGGT
  switch fluorescence ratio: 1 ± 0.018

## TCAAGAGTTA
  switch fluorescence ratio: 0.99 ± 0.035

## TCAAGGGTGA
  switch fluorescence ratio: 1.03 ± 0.022

## TCAAGTATCA
  switch fluorescence ratio: 1.02 ± 0.02

## TCAAGTGGGG
  switch fluorescence ratio: 1.01 ± 0.053

## TCAAGTTAAG
  switch fluorescence ratio: 0.9772 ± 0.0014

## TCAAGTTTTT
  switch fluorescence ratio: 1.012 ± 0.0044

## TCAATATGTT
  switch fluorescence ratio: 1.004 ± 0.0073

## TCAATCAGAG
  switch fluorescence ratio: 1.01 ± 0.0045

## TCAATCGTGG
  switch fluorescence ratio: 1.01 ± 0.021

## TCAATCTGGG
  switch fluorescence ratio: 1.006 ± 0.0066

## TCAATCTTCT
  switch fluorescence ratio: 1.032 ± 0.0095

## TCAATGATGG
  switch fluorescence ratio: 1 ± 0.0046

## TCAATTATAC
  switch fluorescence ratio: 1.94 ± 0.41

## TCAATTCTAC
  switch fluorescence ratio: 1.02 ± 0.041

## TCAATTTGTT
  switch fluorescence ratio: 0.992 ± 0.033

## TCACAGCTGG
  switch fluorescence ratio: 1.04 ± 0.016

## TCACAGGTTT
  switch fluorescence ratio: 1.05 ± 0.017

## TCACATAGTT
  switch fluorescence ratio: 1.01 ± 0.0061

## TCACATTATT
  switch fluorescence ratio: 1.04 ± 0.02

## TCACCTTATT
  switch fluorescence ratio: 1.03 ± 0.022

## TCACGAACCT
  switch fluorescence ratio: 1.69 ± 0.1

## TCACGAGTTT
  switch fluorescence ratio: 1.014 ± 0.0038

## TCACGGAAGT
  switch fluorescence ratio: 1.022 ± 0.0036

## TCACGGGGGC
  switch fluorescence ratio: 0.976 ± 0.061

## TCACGGGTTC
  switch fluorescence ratio: 1.03 ± 0.031

## TCACGTGGCT
  switch fluorescence ratio: 0.975 ± 0.015

## TCACGTTGTT
  switch fluorescence ratio: 0.981 ± 0.036

## TCACTATACA
  switch fluorescence ratio: 1.315 ± 0.0077

## TCACTATTTA
  switch fluorescence ratio: 1.013 ± 0.0082

## TCACTATTTT
  switch fluorescence ratio: 1.01 ± 0.02

## TCAGAAGGCT
  switch fluorescence ratio: 0.999 ± 0.065

## TCAGAATATT
  switch fluorescence ratio: 0.978 ± 0.023

## TCAGAGATGA
  switch fluorescence ratio: 0.95 ± 0.026

## TCAGAGGCTT
  switch fluorescence ratio: 0.996 ± 0.04

## TCAGAGTGCT
  switch fluorescence ratio: 1.03 ± 0.025

## TCAGATCTGT
  switch fluorescence ratio: 1 ± 0.024

## TCAGATGGTG
  switch fluorescence ratio: 1.02 ± 0.014

## TCAGCAGGTT
  switch fluorescence ratio: 2.85 ± 2.2

## TCAGCATTTT
  switch fluorescence ratio: 1.01 ± 0.046

## TCAGGAGGGG
  switch fluorescence ratio: 0.997 ± 0.02

## TCAGGGGGAC
  switch fluorescence ratio: 1.78 ± 1.3

## TCAGGGGGGC
  switch fluorescence ratio: 1.28 ± 0.62

## TCAGGGTTAT
  switch fluorescence ratio: 1.02 ± 0.0034

## TCAGGGTTGT
  switch fluorescence ratio: 1.02 ± 0.031
